Source: patent publication US10947270B2, “Targeted prodrug cytosine deaminase fusion carrier and application thereof” (National Yang-Ming University, priority 2015, dated 2021)

Columns and labels:
[1] = target: T1, integrin αvβ3 receptor (Homo sapiens, UniProt P05106+P06756); experiment: ELISA binding ability of DTPA modified and In-labeled yCD series protein to integrin αvβ3 receptor; conditions: before and after modification, marking, purification
Description: The curve and receptor binding ability parameters (see FIG. 19 and Table 14) are fitted by the binding ability of DTPA-modified protein and integrin αvβ3 receptor through the One site-Specific binding formula in the Graph prism program.
Before the protein is labeled by radioisotope, its enzyme function must be determined, and based on the original enzyme function, it should be examined whether it will be affected during the radioactive marking process. The curve and enzyme kinetic parameters of protein are fitted by the Michaelis-Menten formula in the Graph prism program. […] Whether the yCD and RGD4C-yCD protein detected by the same method will be affected under the conditions of DTPA modification, marking and purification. […] After the completion of the radioactive metal mark, it is necessary to add EDTA of 10-fold protein Moire number and react at room temperature for 1 hour to compete for the radioactive metal isotope indium which is not chelated on DTPA. The EDTA in this step also has the chance to chelate the metal zinc ion of the enzyme catalytic center, the enzyme activity is impaired, so it is necessary to analyze the enzyme activity of In-DTPA-yCD and In-RGD4C-yCD protein after competition with EDTA. […]

[2] = Enzyme activity and kinetic analysis of yCD series recombinant proteins (5-FC converted into 5-FU); assay type: biochemical; conditions: 50 nM protein
Description: FIGS. 2A-2B show the enzyme activities of RGD4C-yCD, yCD, RGD4C-yCD/UPRT and yCD/UPRT proteins to convert 5-FC to 5-FU. 50 nM of RGD4C-yCD, yCD, RGD4C-yCD/UPRT or yCD/UPRT protein reacted with increasing concentrations of 5-FC in phosphate buffered saline solutions. […] The measured data was used to plot the enzyme kinetic curve that takes the substrate concentration [S] as the x-axis and takes the initial reaction rate V0 as the y-axis,
The enzyme activity of 5-FC converted into 5-FU by RGD4C-yCD, yCD, RGD4C-yCD/UPRT and yCD/UPRT is performed. The recombinant protein concentration (50 nM) added with 5-FC at different concentrations. The 5-FC consumption and the generated amount of 5-FU is calculated. The measured data is taken as the x-axis by the substrate concentration [S]; the initial reaction rate V0 is the kinetic curve by making a diagramthe with y-axis (see FIG. 2A and FIG. 2B); the non-linear regression is made by the prism software according to the Michaelis-Menten equation; calculate the enzyme kinetic parameter Km and Vmax. […] It is speculated that the yCD function in each fusion protein is similar, but yUPRT may affect the effects of yCD and 5-FC.

[3] = target: T1, integrin αvβ3 receptor; experiment: ELISA binding assay of yCD series recombinant protein to integrin αvβ3 receptor; conditions: ELISA
Description: FIGS. 3A-3B show the binding affinity and specificity of RGD4C-yCD, yCD, RGD4C-yCD/UPRT and yCD/UPRT proteins to integrin αvβ3. The binding affinities of RGD4C-yCD, yCD, RGD4C-yCD/UPRT and yCD/UPRT proteins to integrin αvβ3 were determined by ELISA assay using horseradish peroxidase (HRP)-tagged anti-His6 antibody (FIG. 3A). The dissociation constant Kd is obtained by prism software with curve fitting method. […] (*compared with untreated RGDfv group, P<0.05)
The specific binding ability of RGD4C-yCD, yCD, RGD4C-yCD/UPRT and yCD/UPRT recombinant protein to integrin αvβ3 receptor is analyzed by ELISA binding assay, plotted with prism software and made with curve fitting to find the dissociation constant Kd value.

[4] = Enzyme kinetic analysis of EcCD series fusion proteins, substrate cytosine; assay type: biochemical
Description: FIGS. 11A-11D show the activity and kinetics analysis of EcCD series fusion protein enzymes, and the EcCD series proteins are combined with 5-FC at different concentrations for reaction. Respectively calculate the 5-FU formation reaction rate shown in FIG. 11A, 5-FC consumption reaction rate shown in FIG. 10B, uracil formation reaction rate shown in FIG. 10C and cytosine consumption reaction rate shown in FIG. 10D, substitute Michaelis-Menten formula, and calculate the base mass (Kcat) and Km value catalyzed by each mol enzyme in unit time. […]

[5] = Relative substrate selectivity of cytosine deaminase enzyme for 5-FC and cytosine (formula 1); assay type: biochemical; conditions: relative substrate selectivity to 5-FC
Description: Evaluation of the relative substrate selectivity of cytosine deaminase enzyme for 5-FC and Cytosine can be expressed by the following formula 1,
The higher the value, the higher the selectivity of the enzyme to the 5-FC substrate.

[6] = system: HUVEC and U87MG cells; experiment: Fluorescence microscopy of binding and distribution of yCD series fusion proteins; assay type: cell-based, human; conditions: 500 nM protein, 4° C., 2 hours
Description: (FIG. 8A) or 37° C. […] (FIG. 8C) or 37° C. (FIG. 8D) for 2 hours, and then the fluorescent staining is performed for the cells, and the confocal fluorescence microscope is used to observe the distribution of protein in cells. (Green signal: β3 integrin; red signal: anti-His6-tag (also represents the signal of the fusion protein); blue signal: Hoechst 33342 cell nuclear stain) (Calibration scale: 20 μm).
HUVEC and U87MG cells are co-cultured with culture medium containing 500 nM RGD4C-yCD and RGD4C-yCD/UPRT protein at 4° C. and 37° C. for 2 hours, then the cells are stained with fluorescence, and the distribution in the cell is observed by conjugated fluorescence microscopy.

[7] = Enzyme kinetic analysis of yCD series proteins after DTPA modification, marking and purification; assay type: biochemical
Description: The enzyme activity of yCD is not affected by DTPA modification.
FIGS. 24A-24B show the kinetic curve of yCD series protein modified, labeled and purified by DTPA. The enzyme activity of the two proteins is not affected by the labeling conditions. After adding EDTA with a 10-fold molar excess of protein, and it is competitively purified, In-DTPA-yCD compared with the original enzyme activity.
The curve and enzyme kinetic parameters (see FIG. 18 and Table 13) are fitted by the […] protein enzyme kinetics through the Michaelis-Menten formula in the Graph prism program.
Before the protein is labeled by radioisotope, its enzyme function must be determined, and based on the original enzyme function, it should be examined whether it will be affected during the radioactive marking process. The curve and enzyme kinetic parameters of protein are fitted by the Michaelis-Menten formula in the Graph prism program. […] Whether the yCD and RGD4C-yCD protein detected by the same method will be affected under the conditions of DTPA modification, marking and purification. […] After the completion of the radioactive metal mark, it is necessary to add EDTA of 10-fold protein Moire number and react at room temperature for 1 hour to compete for the radioactive metal isotope indium which is not chelated on DTPA. The EDTA in this step also has the chance to chelate the metal zinc ion of the enzyme catalytic center, the enzyme activity is impaired, so it is necessary to analyze the enzyme activity of In-DTPA-yCD and In-RGD4C-yCD protein after competition with EDTA. After the EDTA competitive reaction is completed, the enzyme kinetics analysis can be carried out by reducing the EDTA molecule weight through membrane centrifugation method and by replacing the solution with pH 7.0. […] The curve and receptor binding ability parameters of the protein and integrin αvβ3 are fitted under the conditions of DTPA modification, marking and purification by the One site-Specific binding formula in the Graph prism program (see FIG. 25 and Table 18). […] Although the two proteins after marking are greatly affected by the enzyme activity, they still have good binding ability to the integrin αvβ3 receptor. In consideration of the indispensability of EDTA for radiochemical purity, it retains a considerable amount of enzyme activity. In addition, the effect of integrin αvβ3 receptor binding ability is minimal, in combination of cell uptake, biodistribution and angiography experiment, focusing on the evaluation of target results, and the subsequent biological experiment is still carried out by the marking and purification conditions.

T1 sequence (P06756 31-889 limits assumed): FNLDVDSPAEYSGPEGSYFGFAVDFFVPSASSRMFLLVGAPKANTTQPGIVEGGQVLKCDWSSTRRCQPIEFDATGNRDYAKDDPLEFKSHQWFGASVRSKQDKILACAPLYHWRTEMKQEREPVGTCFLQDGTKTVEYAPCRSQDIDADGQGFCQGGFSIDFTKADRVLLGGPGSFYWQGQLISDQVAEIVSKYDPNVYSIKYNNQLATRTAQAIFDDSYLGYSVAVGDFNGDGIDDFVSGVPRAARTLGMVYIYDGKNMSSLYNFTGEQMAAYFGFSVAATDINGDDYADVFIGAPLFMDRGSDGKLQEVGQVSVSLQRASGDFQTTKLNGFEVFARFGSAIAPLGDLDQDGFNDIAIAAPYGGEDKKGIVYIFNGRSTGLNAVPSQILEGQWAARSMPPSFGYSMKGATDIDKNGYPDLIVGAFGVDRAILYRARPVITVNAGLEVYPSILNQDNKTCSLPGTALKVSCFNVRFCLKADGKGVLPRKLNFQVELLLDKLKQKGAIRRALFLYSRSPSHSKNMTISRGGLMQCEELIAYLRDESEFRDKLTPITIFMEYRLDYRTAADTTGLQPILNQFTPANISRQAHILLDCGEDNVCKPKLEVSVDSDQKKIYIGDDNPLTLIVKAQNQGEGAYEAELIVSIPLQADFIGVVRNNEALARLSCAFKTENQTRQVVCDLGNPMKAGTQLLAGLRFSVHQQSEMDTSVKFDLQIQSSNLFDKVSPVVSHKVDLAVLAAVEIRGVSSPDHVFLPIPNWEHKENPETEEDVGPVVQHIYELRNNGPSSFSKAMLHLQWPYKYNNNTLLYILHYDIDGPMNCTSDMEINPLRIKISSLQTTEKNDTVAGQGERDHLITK
T1 sequence (P06756 891-1048 partner limits assumed): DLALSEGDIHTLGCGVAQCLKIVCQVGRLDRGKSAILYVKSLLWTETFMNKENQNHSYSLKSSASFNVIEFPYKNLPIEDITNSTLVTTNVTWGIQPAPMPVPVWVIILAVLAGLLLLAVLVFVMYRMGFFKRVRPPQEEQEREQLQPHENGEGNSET
T1 sequence (P05106 27-788): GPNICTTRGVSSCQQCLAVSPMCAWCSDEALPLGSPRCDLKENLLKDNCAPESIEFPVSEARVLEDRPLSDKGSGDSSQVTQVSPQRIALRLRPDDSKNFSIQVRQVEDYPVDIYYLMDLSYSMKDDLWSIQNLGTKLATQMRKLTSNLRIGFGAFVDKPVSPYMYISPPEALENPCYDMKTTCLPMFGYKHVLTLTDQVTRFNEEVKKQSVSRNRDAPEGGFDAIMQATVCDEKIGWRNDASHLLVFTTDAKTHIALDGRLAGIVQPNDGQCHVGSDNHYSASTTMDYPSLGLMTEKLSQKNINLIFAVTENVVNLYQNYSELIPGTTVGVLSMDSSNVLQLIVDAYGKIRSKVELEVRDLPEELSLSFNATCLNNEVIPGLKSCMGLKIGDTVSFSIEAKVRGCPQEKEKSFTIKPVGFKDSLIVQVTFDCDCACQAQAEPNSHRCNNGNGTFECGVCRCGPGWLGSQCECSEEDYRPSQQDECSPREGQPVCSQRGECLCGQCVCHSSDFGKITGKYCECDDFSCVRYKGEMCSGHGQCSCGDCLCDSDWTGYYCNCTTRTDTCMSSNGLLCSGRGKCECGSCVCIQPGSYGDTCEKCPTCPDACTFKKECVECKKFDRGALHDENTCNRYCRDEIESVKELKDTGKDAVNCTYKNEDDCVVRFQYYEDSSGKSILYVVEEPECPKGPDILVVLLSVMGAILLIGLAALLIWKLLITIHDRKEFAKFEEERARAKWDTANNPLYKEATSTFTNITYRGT

B1: yCD: yeast cytosine deaminase (yCD) (SEQ ID NO: 1), recombinant protein without target molecule (protein)
chain: MVVTGGMASKWDQKGMDIAYEEAALGYKEGGVPIGGCLINNKDGSVLGRGHNMRFQKGSATLHGEISTLENCGRLEGKVYKDTTLYTTLSPCDMCTGAIIMYGIPRCVVGENVNFKSKGEKYLQTRGHEVVVVDDERCKKIMKQFIDERPQDWFEDIGELEHHHHHH
modifications: yCD
[1]
  binding with integrin αvβ3 receptor: can not be bound
[2]; calculated by 5-FC consumption
  Km: 700 ± 100 µM
  Vmax: 175.8 ± 4.7 µM/min
[2]; calculated by 5-FU formation
  Km: 1000 ± 100 µM
  Vmax: 164.2 ± 4.7 µM/min
[3]
  binding to integrin αvβ3: cannot be bound
[4]; cytosine consumption
  Kcat: 55.6 ± 8.5 s⁻¹
  Km: 4700 ± 1300 µM
[4]; uracil generation
  Kcat: 54.6 ± 1.3 s⁻¹
  Km: 3900 ± 200 µM
[5]
  [Kcat/Km(5-FC)]/{[Kcat/Km(cytosine)] + [Kcat/Km(5-FC)]}: 0.771
[6]
  binding and distribution in cells: can not be effectively bound
[7]
  Km: 840 ± 71.9 µM
  Vmax: 264.1 ± 8.256 µM/min
